Amyloid nucleation score data for 131 substances are collected here from the supplement of paper PMC12042874.

± gives the uncertainty stated by the source.

The data set can be described thus: amyloid nucleation score (Sup35N fusion, yeast selection) (log enrichment); library NNK3; higher = more nucleation; inactive = no reads after selection. Put shortly:
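Sup35N fusions to peptides of 20 random codons were expressed in psi-negative yeast, induced 24 hours with 100 μM copper sulfate, and grown 7 days at 30°C on medium lacking adenine and uracil. Input and output plasmid inserts were sequenced by Illumina. The nucleation score is the DiMSum log enrichment of output over input reads, centred on the mode score of non-aggregating sequences. Sequences with under 100 input reads were excluded.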
With PNCLMS, the amyloid nucleation score result is “inactive”.

As for RNFVEANAYSFRLVTVTLSM, the amyloid nucleation score result is “inactive”.

Take QPPHKARGACYIRVFYRCTG: the amyloid nucleation score came to 0.226 ± 0.68.

As for NFQTNGTLKHNN, the amyloid nucleation score entry was “inactive”.

On to HDIDGCIVRKSLYNGRGPLL, for which the amyloid nucleation score result was “inactive”.

As for SIGISEPLIIYLFNWQLLYW, the amyloid nucleation score entry was “inactive”.

Turning to LMRNSMLKTCFRSTAFH, the amyloid nucleation score entry is “inactive”.

In the case of NRVLSVFDLFLRVAFASRFR, the amyloid nucleation score result is “inactive”.

For the substance DLGHQMVVRRHVLFLICCCN, the amyloid nucleation score entry is “inactive”.

Take RMCLITTYTRVFLWLHT: the amyloid nucleation score result was “inactive”.

Take YRKNLRHSLCRNWLYMDCHV: the amyloid nucleation score entry is “inactive”.

With IEVKDSVGVRCFYTYSPTCQ, the amyloid nucleation score result was “inactive”.

On to KRLFIILIWKFCTGLCFL, for which the amyloid nucleation score entry was “inactive”.

As to VALWLVWLFYMRFRGSSFEL, the amyloid nucleation score entry was “inactive”.

On to LNLDCTS, for which the amyloid nucleation score entry is “inactive”.

RMRCAAVRAARAVPATKGEG: the amyloid nucleation score entry was “inactive”.

As for FFVWKHLLMRFRYALACTLM, the amyloid nucleation score result was “inactive”.

Take QFRFSFASYFMRSVSIGWIG: the amyloid nucleation score entry is “inactive”.

With EFHCSYLVIWYG, the amyloid nucleation score entry was “inactive”.

KLMEICYRVRIRRMECQVNW registered an amyloid nucleation score of 0.753 ± 0.12.

As to KSGTGSNWFWKGGLSGTKKH, the amyloid nucleation score result is “inactive”.

Turning to RFRFILRCC, the amyloid nucleation score result was “inactive”.

On to CNFDKTLRSHDDQLAVGITV, for which the amyloid nucleation score result was “inactive”.

As for LYRKWRE, the amyloid nucleation score result was “inactive”.

For the substance KRVSTDAW, the amyloid nucleation score result was “inactive”.

For the substance QRFVSIFPGI, the amyloid nucleation score entry is “inactive”.

FTFGCSLCTMYTANSHFRGC showed an amyloid nucleation score of 1.87 ± 0.061.

As for DKMIGWGDWSSLY, the amyloid nucleation score result is “inactive”.

As to RMRLRVSVILGA, the amyloid nucleation score was determined as 0.997 ± 0.11.

For the substance TGHMTDIYYELSHGVEPKGL, the amyloid nucleation score entry was “inactive”.

The substance KQFRVWFCYFL displayed an amyloid nucleation score of 0.565 ± 0.14.

With IYDCFVTGSFLRK, the amyloid nucleation score entry was “inactive”.

For the substance LTHGAVTVFYRFIMLSFILR, the amyloid nucleation score result is “inactive”.

For FATVDDMSTGFRYIFLITRA, the amyloid nucleation score entry was “inactive”.

For HFSLSG, the amyloid nucleation score entry was “inactive”.

In the case of NTSDPSNRFLPFLYVRLHSS, the amyloid nucleation score result was “inactive”.

Take RCRKHALLFHRCILGYSVLP: the amyloid nucleation score result is “inactive”.

Regarding NYPLRFLGKLAAT, the amyloid nucleation score entry was “inactive”.

SYEGMTREPLYMVYMRGSTD displayed an amyloid nucleation score of 1.16 ± 0.16.

With YAIAAYFDKRRIVGWVINCS, the amyloid nucleation score result was “inactive”.

With LHWSIDR, the amyloid nucleation score result was “inactive”.

In the case of LLSIRTSSCFCKRGSTKFED, the amyloid nucleation score came out at 0.176 ± 0.33.

In the case of FTGAMAFFLWFIQDYWFTGW, the amyloid nucleation score result is “inactive”.

Consider FFSAFID, for which the amyloid nucleation score entry is “inactive”.

Take NIRYVWCQKRLTCARSWNPV: the amyloid nucleation score entry was “inactive”.

With AGHYLLSPGYQMMLERSNRS, the amyloid nucleation score entry was “inactive”.

Turning to GRWFVCVQSAWCDCGGDVCV, the amyloid nucleation score entry was “inactive”.

Turning to ACSYVGTKMLPGANLRDKPW, the amyloid nucleation score is -0.387 ± 1.5.

As to ACIYYHTASCKRCQQAIESE, the amyloid nucleation score result was “inactive”.

As to DSYCGLRDEWITRWLGCRWM, the amyloid nucleation score result is “inactive”.

For the substance QQIFRDNCPVGSRFIFLSR, the amyloid nucleation score result is “inactive”.

With YSLLSSMPLIRRRLGLYESW, the amyloid nucleation score entry is “inactive”.

With SMCGNWGNWASVGWNFCWRV, the amyloid nucleation score entry is “inactive”.

For AACNIN, the amyloid nucleation score entry was “inactive”.

As for AVVRDDLVSCPPSAATLQIP, the amyloid nucleation score entry was “inactive”.

FDNFADNRLNKVSYKYQT gave an amyloid nucleation score of 1.27 ± 0.12.

On to TGGWTNNEQHFENSGMEVGT, for which the amyloid nucleation score entry was “inactive”.

With SSSSNANGFNRHYLSVRFGE, the amyloid nucleation score entry was “inactive”.

In the case of CTDRRVRWGYGFKFRFGHGD, the amyloid nucleation score result was “inactive”.

Regarding VMTAGWYLFLLSGSEGYVVS, the amyloid nucleation score was -0.325 ± 1.2.

SFSEPAHWPSCSRFVRDCVS: the amyloid nucleation score entry was “inactive”.

As to FCKMVFLGTAVRCVVKLQSV, the amyloid nucleation score entry was “inactive”.

Regarding KTLTKSNIWIG, the amyloid nucleation score is -0.639 ± 0.87.

For the substance HRFAGTKVALYGVKLGGARY, the amyloid nucleation score result was “inactive”.

For YRYHIMVMKAVIDTNSRKGW, the amyloid nucleation score entry is “inactive”.

As for FLDFQLFLCTHYLGRI, the amyloid nucleation score entry is “inactive”.

IDWLKRVVEVTSVEGAYCWW: the amyloid nucleation score result is “inactive”.

As to NKVISSSLTFRFIKVQFIYH, the amyloid nucleation score entry was “inactive”.

Substance RKLSNIYFVIGDGMWGSHGW returned an amyloid nucleation score of 2.32 ± 0.06.

As for IYTARIVTFCTFFRRY, the amyloid nucleation score entry was “inactive”.

Regarding DERKNSIDSR, the amyloid nucleation score entry was “inactive”.

As for YWGKRSF, the amyloid nucleation score entry was “inactive”.

For the substance SPSEMIAFWFNSTFVTSASG, the amyloid nucleation score is -0.46 ± 1.7.

In the case of TSILEWVSFDGSM, the amyloid nucleation score result was “inactive”.

Take IPTSQAEFCCFSGAKHFQIV: the amyloid nucleation score entry is “inactive”.

Turning to GKRNEWN, the amyloid nucleation score entry is “inactive”.

YRCDVFFLSVVVDSNFIDKL gave an amyloid nucleation score of 2.83 ± 0.079.

Take VSVVNYKVVHSSAEKVFSFS: the amyloid nucleation score entry was “inactive”.

With LKTNCTPNMLFGFLSEMMRC, the amyloid nucleation score result is “inactive”.

Regarding WWSCGILSKPFFWYISRTF, the amyloid nucleation score entry was “inactive”.

With RLAGSFKLKSVYKGMLDYLA, the amyloid nucleation score came out at 0.819 ± 0.15.

Consider PYLLAVNRGESSSSVWLMPM, for which the amyloid nucleation score entry was “inactive”.

Regarding SLSPAGSGSFFGKGFWMMLA, the amyloid nucleation score result was “inactive”.

For the substance RMLRNF, the amyloid nucleation score is -0.466 ± 1.9.

As to HWCVPL, the amyloid nucleation score result was “inactive”.

As for FDSLFYCGYTYHYQVARKFR, the amyloid nucleation score entry was “inactive”.

For the substance DCTSILELVGGARPTHSGLE, the amyloid nucleation score result was “inactive”.

Take YLWFWQFNTRLGVRRIFWTR: the amyloid nucleation score result is “inactive”.

On to QTYCYKEMFLITERWIPHSP, for which the amyloid nucleation score is -0.155 ± 0.8.

Regarding SGIFKLNCHKVGLILQSPYR, the amyloid nucleation score amounted to 0.055 ± 0.35.

As for PEEDRFLTQSPMLRFIITHM, the amyloid nucleation score entry was “inactive”.

For the substance YEPSNCKLVSMYVFCRLKLA, the amyloid nucleation score was -0.574 ± 1.

As to YMNSVACSEMFSFSGLWEWW, the amyloid nucleation score result is “inactive”.

For LMTNRVVL, the amyloid nucleation score result is “inactive”.

As for GWVYWVSMRVIPNRIVINDP, the amyloid nucleation score result is “inactive”.

On to YMTGLD, for which the amyloid nucleation score result was “inactive”.

Substance IVHNYFSFCHYNRGRVGLFI displayed an amyloid nucleation score of 2.64 ± 0.074.

Regarding YFLSN, the amyloid nucleation score entry is “inactive”.

For the substance SYNSVRW, the amyloid nucleation score result is “inactive”.

SVIYVLYKVW: the amyloid nucleation score result is “inactive”.

For VWSHSI, the amyloid nucleation score entry is “inactive”.

As for CKYLPLRNYGSCSPGYGKYV, the amyloid nucleation score entry was “inactive”.

VFSVHVWQCSNLFQRMLCNF: the amyloid nucleation score turned out to be 1.06 ± 0.14.

For the substance VLQHRLVFDFYKFCMSTMVH, the amyloid nucleation score result was “inactive”.

Consider LSGELCSW, for which the amyloid nucleation score result was “inactive”.

In the case of KIVLDRARDWQL, the amyloid nucleation score was 0.094 ± 0.41.

On to IYIAKLHEFSIRYVLPVWYI, for which the amyloid nucleation score result was “inactive”.

Turning to NVPKPGTFFCDKCYYGCVWD, the amyloid nucleation score worked out at 0.642 ± 0.48.

On to RCYALDFRWLILDVSYHGWG, for which the amyloid nucleation score result was “inactive”.

For LDFANCFLVQCL, the amyloid nucleation score entry was “inactive”.

Substance ESDFRLYSCFDWNVVAMNYR had an amyloid nucleation score of 1.44 ± 0.074.

Take MFINECVSVYDQF: the amyloid nucleation score result was “inactive”.

As to NMENLKRGFVIWS, the amyloid nucleation score result was “inactive”.

For the substance NVNMYIDFVLIDMNWQNCTQ, the amyloid nucleation score is 3.05 ± 0.062.

Take HMLHVWYFLGRQYANTFCYM: the amyloid nucleation score result was “inactive”.

For the substance RYPGVFTTQSA, the amyloid nucleation score result was “inactive”.

Regarding MYLFRENGHQSGNVY, the amyloid nucleation score entry is “inactive”.

For ASNDDVG, the amyloid nucleation score entry is “inactive”.

For the substance HSFTAMLICSAYASAARYLR, the amyloid nucleation score entry is “inactive”.

On to GCFNGNSYRSLPFWFMSTCL, for which the amyloid nucleation score result was “inactive”.

Turning to QDFKCRRGNY, the amyloid nucleation score result was “inactive”.

MFVSLMKQFM displayed an amyloid nucleation score of 0.931 ± 0.1.

Turning to LGRANIHATIACM, the amyloid nucleation score entry is “inactive”.

Regarding ILTWRRFVFFLDWVDFTSQG, the amyloid nucleation score result is “inactive”.

NMGTGGRLEGPVDSGHSEKF: the amyloid nucleation score entry was “inactive”.

For the substance KDGFYNVPLVEPHMRSSSTP, the amyloid nucleation score entry was “inactive”.

Consider LYPFYFYA, for which the amyloid nucleation score entry was “inactive”.

Regarding TTDFSNMLDLSGVKVSGVLP, the amyloid nucleation score entry is “inactive”.

For the substance ISMSNHWLLLVICNDEWDLP, the amyloid nucleation score was -0.06 ± 0.7.

For the substance VVQSYFIRREEFLLSCVQAG, the amyloid nucleation score result was “inactive”.

With IRTNAGSLYFYWGTLFRISH, the amyloid nucleation score entry is “inactive”.
